Assay results as given in IntAct's records for PubMed 38890443.

B1: E3 ubiquitin-protein ligase RNF26 (Homo sapiens), Q9BY78 (parent)
chain: MEAVYLVVNGLGLVLDVLTLVLDLNFLLVSSLLASLAWLLAFVYNLPHTVLTSLLHLGRGVLLSLLALIEAVVRFTCGGLQALCTLLYSCCSGLESLKLLGHLASHGALRSREILHRGVLNVVSSGHALLRQACDICAIAMSLVAYVINSLVNICLIGTQNLFSLVLALWDAVTGPLWRMTDVVAAFLAHISSSAVAMAILLWTPCQLALELLASAARLLASFVLVNLTGLVLLACVLAVTVTVLHPDFTLRLATQALSQLHARPSYHRLREDVMRLSRLALGSEAWRRVWSRSLQLASWPNRGGAPGAPQGDPMRVFSVRTRRQDTLPEAGRRSEAEEEEARTIRVTPVRGRERLNEEEPPGGQDPWKLLKEQEERKKCVICQDQSKTVLLLPCRHLCLCQACTEILMRHPVYHRNCPLCRRGILQTLNVYL
partner: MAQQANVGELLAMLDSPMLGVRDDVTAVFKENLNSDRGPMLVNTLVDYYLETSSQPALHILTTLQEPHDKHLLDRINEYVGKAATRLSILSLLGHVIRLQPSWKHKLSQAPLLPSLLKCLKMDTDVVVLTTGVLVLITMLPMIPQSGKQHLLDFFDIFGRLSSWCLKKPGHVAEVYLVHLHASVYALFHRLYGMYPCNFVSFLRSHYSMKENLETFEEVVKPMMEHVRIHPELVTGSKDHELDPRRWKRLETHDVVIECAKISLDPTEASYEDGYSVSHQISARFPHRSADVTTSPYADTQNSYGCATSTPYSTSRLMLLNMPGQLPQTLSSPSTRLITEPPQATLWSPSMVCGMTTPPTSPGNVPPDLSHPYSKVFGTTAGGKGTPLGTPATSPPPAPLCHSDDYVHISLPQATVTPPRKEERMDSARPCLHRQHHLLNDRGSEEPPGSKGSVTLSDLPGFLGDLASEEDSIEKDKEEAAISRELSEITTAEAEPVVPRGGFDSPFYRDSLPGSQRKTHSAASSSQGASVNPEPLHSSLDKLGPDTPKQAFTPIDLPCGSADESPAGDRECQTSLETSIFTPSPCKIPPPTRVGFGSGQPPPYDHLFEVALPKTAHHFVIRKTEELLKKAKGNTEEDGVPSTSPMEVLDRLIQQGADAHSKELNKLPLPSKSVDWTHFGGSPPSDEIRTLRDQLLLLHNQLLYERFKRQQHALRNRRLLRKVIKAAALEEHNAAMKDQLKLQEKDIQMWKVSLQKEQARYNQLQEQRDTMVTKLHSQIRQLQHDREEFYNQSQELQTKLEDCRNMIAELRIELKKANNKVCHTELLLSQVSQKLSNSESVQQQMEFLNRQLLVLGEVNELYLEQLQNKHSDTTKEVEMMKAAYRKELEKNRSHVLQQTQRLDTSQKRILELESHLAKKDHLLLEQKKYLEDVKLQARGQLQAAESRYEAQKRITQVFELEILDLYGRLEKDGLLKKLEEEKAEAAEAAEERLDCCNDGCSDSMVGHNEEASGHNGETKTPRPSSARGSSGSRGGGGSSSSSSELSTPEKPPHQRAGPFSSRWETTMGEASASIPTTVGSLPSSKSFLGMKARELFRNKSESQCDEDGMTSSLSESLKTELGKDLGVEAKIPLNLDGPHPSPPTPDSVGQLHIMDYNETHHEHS

Variants of: B1
Conditions: with tsc1_human TSC1, Q92574

effect of a mutation on the interaction	Variant
increasing interaction	T348D

Variants of: B1
Conditions: with tsc1_human TSC1, Q92574
Remark: another data set of the same source

effect of a mutation on the interaction	Variant
decreasing interaction	T348A
